The data set concerns the target human PARP, P09874.

Sequence of human PARP, P09874 (P09874 whole entry, looked up): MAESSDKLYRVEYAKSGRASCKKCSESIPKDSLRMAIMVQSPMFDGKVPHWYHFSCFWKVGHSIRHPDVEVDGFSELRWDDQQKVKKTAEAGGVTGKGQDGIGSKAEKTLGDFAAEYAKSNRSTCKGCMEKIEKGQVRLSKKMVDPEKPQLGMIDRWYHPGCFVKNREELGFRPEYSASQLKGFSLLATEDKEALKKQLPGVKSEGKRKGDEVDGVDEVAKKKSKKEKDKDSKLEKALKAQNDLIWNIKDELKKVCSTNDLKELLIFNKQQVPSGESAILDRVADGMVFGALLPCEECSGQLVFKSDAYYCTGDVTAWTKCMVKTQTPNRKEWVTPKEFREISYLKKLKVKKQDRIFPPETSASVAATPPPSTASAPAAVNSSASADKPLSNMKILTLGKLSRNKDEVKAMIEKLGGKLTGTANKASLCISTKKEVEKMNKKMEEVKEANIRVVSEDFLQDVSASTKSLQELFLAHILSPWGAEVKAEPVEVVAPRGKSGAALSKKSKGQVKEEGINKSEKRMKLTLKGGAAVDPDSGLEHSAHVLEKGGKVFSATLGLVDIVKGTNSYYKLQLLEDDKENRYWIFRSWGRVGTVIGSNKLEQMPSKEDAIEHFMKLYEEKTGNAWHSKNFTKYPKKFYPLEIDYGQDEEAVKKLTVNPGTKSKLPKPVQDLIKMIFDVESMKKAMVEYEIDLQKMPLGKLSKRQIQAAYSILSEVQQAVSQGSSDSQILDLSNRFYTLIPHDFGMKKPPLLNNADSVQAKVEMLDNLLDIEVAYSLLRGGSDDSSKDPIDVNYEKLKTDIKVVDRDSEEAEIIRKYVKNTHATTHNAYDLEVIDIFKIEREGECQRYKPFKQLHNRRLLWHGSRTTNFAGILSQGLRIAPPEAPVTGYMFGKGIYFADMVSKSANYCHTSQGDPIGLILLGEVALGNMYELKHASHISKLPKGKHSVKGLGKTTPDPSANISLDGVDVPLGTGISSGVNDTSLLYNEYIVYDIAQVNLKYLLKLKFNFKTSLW

B1: CPP32 (protein)
chain: MENTENSVDSKSIKNLEPKIIHGSESMDSGISLDNSYKMDYPEMGLCIIINNKNFHKSTGMTSRSGTDVDAANLRETFRNLKYEVRNKNDLTREEIVELMRDVSKEDHSKRSSFVCVLLSHGEEGIIFGTNGPVDLKKITNFFRGDRCRSLTGKPKLFIIQACRGTELDCGIETDSGVDDDMACHKIPVEADFLYAYSTAPGYYSWRNSKDGSWFIQSLCAMLKQYADKLEFMHILTRVNRKVATEFESFSFDATFHAKKQIPCIVSMLTKELYFYH
As for B1, the “cleavage of PARP in vitro, Western blot” value is “CPP32 cleaved PARP to generate a major band of ˜90 kDa and a minor band of 57 kDa”.

B2: ICEγ (protein)
chain: MADKVLKEKRKLFIRSMGEAPQAVQDNPAMPTSSGSEGNVKLCSLEEAQRIWKQKSAEIYPIMDKSSRTRLALIICNEEFDSIPRRTGAEVDITGMTMLLQNLGYSVDVKKNLTASDMTTELEAFAHRPEHKTSDSTFLVFMSHGIREGICGKKHSEQVPDILQLNAIFNMLNTKNCPSLKDKPKVIIIQACRGDSPGVVWFKDSVGVSGNLSLPTTEEFEDDAIKKAHIEKDFIAFCSSTPDNVSWRHPTMGSVFIGRLIEHMQEYACSCDVEEIFRKVRFSFEQPDGRAQMPTTERVTLTRCFYLFPGH
As to B2, the “cleavage of PARP in vitro, Western blot” value is given as “PARP was not cleaved by Mch2β or ICEγ”.

B3: Mch2β (protein)
chain: MSSASGLRRGHPAVSTVSHADADCFVCVFLSHGEGNHIYAYDAKIEIQTLTGLFKGDKCHSLVGKPKIFIIQACRGNQHDVPVIPLDVVDNQTEKLDTNITEVDAASVYTLPAGADFLMCYSVAEGYYSHRETVNGSWYIQDLCEMLGKYGSSLEFTELLTLVNRKVSQRRVDFCKDPSAIGKKQVPCFASMLTKKLHFFPKSN
For B3, the “cleavage of PARP in vitro, Western blot” value is given as “PARP was not cleaved by Mch2β or ICEγ”.

B4: Mch2α (protein)
chain: MSSASGLRRGHPAGGEENMTETDAFYKREMFDPAEKYKMDHRRRGIALIFNHERFFWHLTLPERRRTCADRDNLTRRFSDLGFEVKCFNDLKAEELLLKIHEVSTVSHADADCFVCVFLSHGEGNHIYAYDAKIEIQTLTGLFKGDKCHSLVGKPKIFIIQACRGNQHDVPVIPLDVVDNQTEKLDTNITEVDAASVYTLPAGADFLMCYSVAEGYYSHRETVNGSWYIQDLCEMLGKYGSSLEFTELLTLVNRKVSQRRVDFCKDPSAIGKKQVPCFASMLTKKLHFFPKSN
On to B4, for which the “cleavage of PARP in vitro, Western blot” value is “Mch2α also cleaved PAR: to generate a major product of ˜83 kDa and a minor product of ˜57 kDa similar to that obtained with CPP32”.

(Values after patent US20030022353.)
